# Reference: patent US20240317874A1 (HIFIBIO HK, published 2024)
# T1: biotinylated OX40 recombinant protein (UniProt P43489 29-216, limits assumed, biotinylated)
# T1 construct: also called OX40 protein; Biotin-OX40
# T1 sequence (looked up): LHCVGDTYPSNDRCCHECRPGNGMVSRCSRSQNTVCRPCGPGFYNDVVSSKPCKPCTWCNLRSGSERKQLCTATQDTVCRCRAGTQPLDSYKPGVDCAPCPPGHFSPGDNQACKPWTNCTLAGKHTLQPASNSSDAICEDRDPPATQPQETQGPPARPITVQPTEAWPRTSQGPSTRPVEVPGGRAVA
# T2: recombinant human OX40-mFc protein (human, UniProt P43489 29-214)
# T2 construct: Recombinant dimer (mFc-tagged); also called hOX40.mFc; recombinant human OX40 protein; not shown: mFc tag
# T2 sequence: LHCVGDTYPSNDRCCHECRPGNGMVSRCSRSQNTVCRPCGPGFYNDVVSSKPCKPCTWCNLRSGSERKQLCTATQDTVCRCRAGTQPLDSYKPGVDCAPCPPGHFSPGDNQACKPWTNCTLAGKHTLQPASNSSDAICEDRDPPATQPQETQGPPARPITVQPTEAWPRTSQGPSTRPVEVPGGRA
# T3: human OX40 protein expressed on the surface of cells (human, UniProt P43489 29-277)
# T3 sequence: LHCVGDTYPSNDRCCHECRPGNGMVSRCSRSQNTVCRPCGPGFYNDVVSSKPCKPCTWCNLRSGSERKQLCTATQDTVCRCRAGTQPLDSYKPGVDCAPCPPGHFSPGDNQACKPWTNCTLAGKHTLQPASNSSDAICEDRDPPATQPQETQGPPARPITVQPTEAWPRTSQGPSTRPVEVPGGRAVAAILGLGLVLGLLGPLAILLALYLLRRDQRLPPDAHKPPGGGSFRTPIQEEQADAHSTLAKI
# T4: mouse OX40 protein expressed on the surface of 293T cells (mouse, UniProt P47741 20-272)
# T4 construct: whole, on cells
# T4 sequence (looked up): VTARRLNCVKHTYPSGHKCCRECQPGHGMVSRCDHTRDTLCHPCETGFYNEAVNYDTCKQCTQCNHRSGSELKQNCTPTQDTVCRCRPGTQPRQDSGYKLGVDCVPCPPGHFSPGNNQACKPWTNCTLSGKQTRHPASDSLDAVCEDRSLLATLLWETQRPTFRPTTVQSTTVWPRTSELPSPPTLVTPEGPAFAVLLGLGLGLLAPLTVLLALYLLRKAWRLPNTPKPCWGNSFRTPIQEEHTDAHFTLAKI
# Key:
# [1] = molecular target: T5, human CD40 protein expressed on the surface of 293T cells (human, UniProt P25942 21-277); test: flow cytometry on 293T cells transiently transfected with human CD40 (293T-hCD40), goat anti-human IgG PE, MFI
# T5 construct: whole, on cells
# Procedure: (§1) Then, after washing twice with PBS, the cells were incubated with the secondary goat anti-human IgG PE antibody (1:200; Abcam, Cat. ab98596) at room temperature for 30 minutes.
# [2] = molecular target: T1, biotinylated OX40 recombinant protein; test: ELISA, plate coated with the antibody, biotinylated OX40 recombinant protein titrated (x axis = its concentration in nM), OD 450nm
# Procedure: The next day, the plate was blocked with 1% BSA (Sangon Biotech, catalog number A600332-0100) in PBST at 37° C. for 2 hours, and then a defined concentration of biotinylated OX40 recombinant protein was added.
# [3] = molecular target: T6, cynomolgus monkey OX40 protein expressed on the surface of cells (cynomolgus monkey); test: flow cytometry (MFI) on activated primary monkey T cells, donor Lot #200107
# T6 construct: whole, on cells; On transiently transfected 293T cells
# [4] = molecular target: T2, recombinant human OX40-mFc protein; test: BLI (Octet QKe), antibody on anti-human Fc sensor, OX40-mFc in solution, 25 C, pH 7.4, 1:1 model; Experiment B
# Procedure: (§2) The changes of binding signal were recorded, and the kinetic analysis of binding parameters were determined using the Model: 1:1 with the mass transfer limitation. The running buffer solution was prepared with PBS, pH 7.4, containing 0.1% BSA and 0.1% Tween 20. Prior to the kinetic binding experiment, the anti-human Fe capture sensor was rinsed with the running buffer, and the instrument was prewarmed to 25° C. […] The binding of OX40 protein and its antibodies was performed in duplicate with the running buffer at pH 7.4 and 25° C. In short, first, the anti-human Fc capture sensor was immersed in the running buffer for 300 seconds to set the first baseline. The sensor was then mixed with 200 nM test antibody solution for 600 seconds to load the antibody. The sensor was again immersed in the running buffer for 300 seconds to set the second baseline, and then associated with various concentrations of OX40 antigen for 900 seconds. Then dissociation was performed by immersing the sensor in the running buffer for another 900 seconds. In parallel, one sensor was selected as a reference, in which all loading, association, and dissociation steps were performed in the running buffer. […] The sensorgrams were analyzed by Fortebio data analysis software version 8.2 (ForteBio; Fremont, CA). First, the signals were subtracted from the negative control experiment, and compared to the baselines. The kinetic parameters were obtained by entirely fitting these specific sensorgrams with different antigen concentrations to the binding Model: 1:1.
# [5] = molecular target: T6, cynomolgus monkey OX40 protein …; test: flow cytometry (MFI) on 293T cells expressing cynomolgus monkey OX40
# [6] = molecular target: T6, cynomolgus monkey OX40 protein …; test: flow cytometry (MFI) on activated primary monkey T cells, donor M20Z013009
# [7] = molecular target: T6, cynomolgus monkey OX40 protein …; test: flow cytometry (MFI) on activated primary monkey T cells, donor M20Z025008
# [8] = molecular target: T3, human OX40 protein expressed on the …; test: cell-based or functional assay
# [9] = molecular target: T3, human OX40 protein expressed on the …; test: flow cytometry (MFI) on CD3/CD28-activated primary human CD4+CD3+ T cells, second donor
# Procedure: Activation of human T cells were evaluated using CD3⁺ T cells isolated from two human donors' peripheral blood mononuclear cells (hPBMCs) pre-activated using CD3/CD28 Dynabeads.
# [10] = molecular target: T3, human OX40 protein expressed on the …; test: flow cytometry (MFI) on CD3/CD28-activated primary human CD4+CD3+ T cells, first donor
# [11] = molecular target: T2, recombinant human OX40-mFc protein; test: BLI (Octet QKe), antibody on anti-human Fc sensor, OX40-mFc in solution, 25 C, pH 7.4, 1:1 model; Experiment A
# Procedure: as §2
# [12] = molecular target: T3, human OX40 protein expressed on the …; test: flow cytometry (MFI) on 293T cells expressing human OX40
# [13] = molecular target: T4, mouse OX40 protein expressed on the …; test: flow cytometry on 293T cells transiently transfected with mouse OX40, goat anti-human IgG PE, MFI
# Procedure: as §1
# [14] = molecular target: T3, human OX40 protein expressed on the …; test: flow cytometry (MFI) on transfected 293T cells
# [15] = molecular target: T6, cynomolgus monkey OX40 protein …; test: flow cytometry (MFI) on transfected 293T cells
# T5 sequence (P25942 21-277): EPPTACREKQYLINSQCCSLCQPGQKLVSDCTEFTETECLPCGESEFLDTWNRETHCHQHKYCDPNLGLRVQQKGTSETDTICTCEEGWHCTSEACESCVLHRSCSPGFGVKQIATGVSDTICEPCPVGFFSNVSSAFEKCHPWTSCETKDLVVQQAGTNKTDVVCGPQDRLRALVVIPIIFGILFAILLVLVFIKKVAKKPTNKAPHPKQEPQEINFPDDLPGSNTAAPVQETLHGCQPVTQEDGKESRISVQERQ
binder,measurement,setting,value
"anti-OX40 antibody HFB10-1E1hG1 (antibody, human IgG1, kappa, V domains shown, also called HFB301001) VH: not shown VL: DIQMTQSPSSVSASVGDRVTITCRASQGISSWLAWYQQKPGKAPKLLIYAASSLQSGVPSRFSGSGSGTDFTLTISSLQPEDFATYYCQQANSFPLTFGGGTKLEIKR",binding result,[1],no binding (tested: 100 nM)
same,EC50 (read off the curve),[2],~0.2 nM
same,EC50,[3],0.09 nM
same,Kd,[4],4.4 nM
same,koff,[4],0.00043 s⁻¹
same,kon,[4],97000 M⁻¹ s⁻¹
same,EC50,[5],2.94 nM
same,EC50,[6],0.19 nM
same,EC50,[7],0.17 nM
same,"CD16 signaling in CD16-NF-AT-Luc reporter Jurkat cells, EC50 (nM), E:T 1:1",[8],1.2 nM
same,"CD16 signaling in CD16-NF-AT-Luc reporter Jurkat cells, EC50 (nM), E:T 3:1",[8],0.7 nM
same,"CD16 signaling in CD16-NF-AT-Luc reporter Jurkat cells, EC50 (nM), E:T 6:1",[8],0.5 nM
same,"CD16 signaling in CD16-NF-AT-Luc reporter Jurkat cells, EC50 (nM), E:T 12:1",[8],0.3 nM
same,EC50,[9],1.36 nM
same,EC50,[10],0.65 nM
same,Kd,[11],4.5 nM
same,koff,[11],0.00043 s⁻¹
same,kon,[11],97000 M⁻¹ s⁻¹
same,EC50,[12],2.02 nM
same,binding result,[13],no binding (tested: 100 nM)
same,EC50,[14],2 nM
same,EC50,[15],2.9 nM
